From the Human Domainome abundance scans (Beltran et al. 2025)

B1: Pituitary-specific positive transcription factor 1, residues 130 to 198; numbered along this chain, P28069 (parent)
chain: RELEKFANEFKVRRIKLGYTQTNVGEALAAVHGSEFSQTTICRFENLQLSFKNACKLKAILSKWLEEAE

Variants of: B1
Assay: abundance fitness (aPCA) (normalised: wild type 0, dead -1); higher = more abundant; growth selection in yeast, the domain comes from the species named
Details: Homo sapiens

Abundance fitness, by site and new letter:
C42: P -0.761 | Y -0.243 | A 0.21 | H -0.001 | N 0.092 | D 0.325 | T -0.02 | K 0.148 | V -0.336 | W -0.101 | G -0.029 | F -0.348 | M 0.311 | R 0.142
K52: T 0.036 | S -0.002 | R -0.04 | I -0.463 | V 0.073 | P -0.077 | Y 0.057 | Q 0.022 | G -0.149 | C -0.753 | L -0.369 | H 0.018 | E 0.108 | D 0.075 | N -0.024 | A 0.002 | W -0.408
T40: G -0.528 | C -0.512 | W -0.624 | F -0.911 | H -0.403 | A -0.235 | S -0.348 | M -0.431 | I -0.642 | L -0.003 | D 0.308 | V -0.314 | Q -0.211 | N -0.71 | E -0.193
S50: M -0.766 | Y -0.822 | C -0.459 | I -0.378 | W -0.126 | A -0.307 | V -0.877 | D 0.162 | G 0.035 | L -0.57 | R -0.348 | N 0.022 | K -0.182 | H -0.168 | Q -0.533 | T -0.206 | F -0.724
S37: I -0.697 | T -0.063 | M -0.823 | D 0.199 | E -0.568 | L -0.682 | N 0.117 | V -0.833 | H -0.689 | R -0.743 | Q -0.736 | F -0.901 | P -0.544 | Y -0.508 | W -0.925
F44: W -0.909 | L -0.76 | N -1.11 | V -0.974 | D -0.866 | P -0.936 | M -0.89 | E -0.72 | I -0.861 | G -1.03 | H -0.565 | R -0.871 | Y -0.842 | T -1.06 | Q -0.885 | A -0.958
K58: I -0.984 | A -0.473 | Q -0.019 | F -0.933 | D -0.652 | N -0.619 | R -0.184 | H -0.4 | M -0.151 | L -0.848 | E -0.738 | G -0.652 | P -0.708
E45: Y -0.993 | C -0.763 | S -0.92 | V -0.809 | M -0.893 | G -0.961 | H -1.17 | T -0.821 | A -0.415 | R -0.987 | Q -0.767 | F -0.878 | W -0.762 | D -0.991 | L -0.883
T39: K 0.052 | W -0.393 | C -1.07 | R -0.096 | D 0.118 | E 0.255 | Y -0.447 | M -0.147 | G -0.13 | I -0.312 | L -0.242 | V -0.113 | S -0.065 | P -0.387 | Q 0.13
Q48: H -0.66 | G -0.673 | P -0.506 | V -0.574 | M -0.505 | C -0.586 | F -0.889 | I -0.758 | L -0.406 | D -0.055 | W -0.915 | Y -0.79 | A -0.629 | K -0.476 | S -0.389 | E -0.003 | T -0.177 | R -0.331
F51: K -0.11 | G -0.39 | T -0.07 | R -0.161 | C -0.534 | L -0.19 | D -0.001 | M -0.156 | P -0.142 | I -0.1 | N -0.342 | A -0.174 | Y 0.034 | V 0.021 | W -0.042 | E 0.144 | S -0.189 | H 0.077 | Q -0.061
L49: N -0.818 | E -0.616 | C -0.208 | H -0.721 | F -0.149 | P -0.687 | S -0.568 | I -0.262 | Q -0.749 | A -0.964 | M 0.106 | Y -0.477 | D -0.847 | W -1.15 | V -0.323 | G -0.632 | R -0.862
R43: V -0.966 | A 0.12 | Y -0.846 | L -0.181 | T -0.825 | D 0.112 | S -0.416 | I -0.888 | M 0.234 | N -0.085 | F -0.289 | G -0.388 | E 0.119 | C -0.559 | P -0.855 | Q 0.11
N53: E 0.355 | Q 0 | C -0.013 | W -0.271 | R 0.206 | A 0.107 | K 0.21 | V 0.122 | T 0.131 | H 0.233 | S 0.115 | I -0.027 | L -0.001 | M 0.058 | P -0.115 | G -0.087
Q38: T 0.277
C55: L 0.121 | A -0.207 | N -0.201 | I 0.046 | T -0.098 | W -0.14 | H -0.099 | Y 0.012 | R -0.294 | D 0.188 | K -0.153 | E -0.07 | M 0.145 | V 0.15 | G -0.395 | S 0.024
I41: W -0.502 | P -0.897 | T -0.892 | G -0.976 | D -0.758 | K -0.842 | Q -0.785 | S -0.866 | N -0.88 | V -0.523 | L -0.541 | M -0.446 | H -0.56 | C -0.444
K56: L -0.466 | V -0.135 | H -0.34 | M -0.268 | T -0.307 | R 0.005 | Q -0.074 | P -0.626 | S -0.23 | N -0.131 | E -0.132 | A -0.226 | W -0.533 | C -0.505 | D -0.366 | G -0.341 | F -0.554
L47: E -0.635 | S -0.168 | C 0.155 | Y -0.428 | N 0.187 | R -0.065 | F -0.562 | K -0.064 | G 0.292 | H 0.164 | A -0.204 | T -0.667 | I -0.866 | P -0.804 | M 0.263 | D -0.689 | V -0.888 | W -0.789
N46: G -0.311 | M -0.492 | F -0.798 | C -0.787 | K -0.266 | P -0.89 | L -0.493 | D -0.112 | T -0.579 | A -0.15 | Y -0.732 | W -0.851 | R -0.313 | V -0.661 | S -0.085 | H -0.545
L57: H -0.226 | I 0.013 | W -0.642 | T -0.262 | Y -0.156 | K -0.497 | P -0.89 | M 0.285 | R -0.584 | V 0.063 | A -0.449 | S -0.534 | N -0.72 | E -0.345 | F -0.126 | C -0.228 | D -0.67 | G -0.507
A54: Y -0.333 | C -0.382 | V -0.756 | F -0.131 | Q -0.473 | M 0.358 | S 0.06 | W -0.302 | G -0.295 | R -0.974 | L -0.033
